# Measurements taken from US20120276102A1 (Pfizer, published 2012).
# Substitutions are numbered along the chain they refer to.
# B1: AbQ (antibody, human IgG1, V domains shown)
# VH: QVQLQESGPGLVKPSETLSLTCAVSGYSISSGYYWGWIRQPPGKGLEWIGSISHTGNTYYNPPLKSRVTISVDTSKNQFSLKLSSVTAADTAVYYCARFMGFGRPEYWGQGTLVTVSS
# VL: SSELTQDPAVSVALGQTVRITCQGDSLRTYYASWYQQKPGQAPVLVIYGKHKRPSGIPDRFSGSSSGNTASLTITGAQAEDEADYYCVARSVVGNPHVLFGGGTQLTVL
# notes: CDR3 graft, residue limits derived as for m29; also called VH3/VL2; VH3DM/VL2
# B2: parental 18A5 antibody (antibody, V domains shown)
# VH: B1 VH with P14T, F99G, M100G, F102I, G103S, Q110K
# VL: SSELTQDPPVSVALGQTVTLTCQGDSLRTYYASWYQQKSGQAPILLLYGKHKRPSGIPDRFSGSTSGDTASLTITGAQAEDEADYYCNSRDSSGNPHVLFGGGTQLTVL
# notes: also called 18A5 IgG
# B3: AbU (antibody, human IgG1, V domains shown)
# VH: B1 VH with F99G, M100G, F102I, G103S
# VL: B1 VL with V88T, A89T, V92N, V93K
# notes: CDR3 graft, residue limits derived as for m29; also called VHP/VL25; VHPTM/VL25
# B4: AbS (antibody, V domains shown)
# VH: B1 VH with F99G, M100G, F102I, G103S
# VL: B1 VL with V88M, A89S, V92I, V93W
# notes: CDR3 graft, residue limits derived as for m29; also called VHP/VL6; VHPTM/VL6
# Columns and labels:
# [1] = molecular target: T1, human IL-21R extracellular domain His-Flag fusion protein (human, UniProt Q9HBE5 20-232); experiment: SPR, Ab captured on anti-human IgG, replicate experiment; Table 7B, human IL-21R-His/FLAG
# T1 construct: Biotinylated in the HTRF screen; also called hIL-21R-H/F; human IL-21R-H/F
# Protocol: The kinetics of binding of anti-IL-21R antibodies to human and murine IL-21R-H/F was tested on a BIACORE™ surface plasmon resonance instrument. Anti-human IgG antibodies (Invitrogen Corporation) were immobilized onto a research-grade carboxy-methyl-dextran chip (CM5) using standard amine coupling. The surface was activated with EDC/NHS for 7 min at a flow of 20 μl/min. The first flow cell was used as a reference surface to correct for bulk refractive index, matrix effects, and nonspecific binding. The anti-human-Fc antibody was diluted to 20 μg/ml in 10 mM sodium acetate buffer (pH 5.0), and 2950-3405 resonance units (RU) were captured on each of the four flow cells. Remaining activated groups were blocked with 1.0 M ethanolamine-HCl (pH 8.5).
# Anti-IL-21R antibodies were diluted to 0.1-0.2 μg/ml in HBS/EP buffer supplemented with 0.2% bovine serum albumin and loaded onto the BIACORE™ chip. Following a brief washing period, solutions of 0-100 nM human IL-21R-H/F or 10-500 nM murine IL-21R-H/F were injected over the chip at a flow rate of 50 μl/min. The association phase was run for 3 min for human and murine IL-21R kinetics, and the dissociation phase was monitored for 15 min for hIL-21R and for 5 min for mIL-21R, followed by two 10 μl injections and one 30 μl injection of glycine (pH 1.5), to regenerate a fully active capturing surface. […]
# human IL-2Rβ = molecular target: T2, human IL-2Rβ (human, UniProt P14784 27-239); experiment: SPR, Ab captured
# T2 sequence (looked up): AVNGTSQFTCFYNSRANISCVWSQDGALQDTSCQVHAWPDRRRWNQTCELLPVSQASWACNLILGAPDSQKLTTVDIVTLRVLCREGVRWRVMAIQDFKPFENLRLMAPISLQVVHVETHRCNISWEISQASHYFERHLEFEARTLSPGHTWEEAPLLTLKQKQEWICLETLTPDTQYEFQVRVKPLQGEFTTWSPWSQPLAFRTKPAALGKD
# Procedure, shortened: (§1)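 SPR at 25 °C in HBS/EP: antibodies from conditioned media captured (500-700 RU) on amine-coupled anti-human IgG or anti-murine Ig on CM5 chip. 50 nM analyte injected, association 120 s and dissociation 180 s; glycine pH 1.5 regeneration, double-referenced sensorgrams.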
# human soluble IL-4R = molecular target: T3, human soluble IL-4R (human, UniProt P24394 26-232, limits assumed); experiment: SPR, Ab captured
# T3 construct: also called human sIL-4R
# Procedure, shortened: as §1
# human IL-13-His/FLAG = molecular target: T4, human IL-13-His/FLAG (human, UniProt P35225 35-146, limits assumed); experiment: SPR, Ab captured
# T4 construct: Unrelated His/FLAG-tagged control; also called human IL-13-H/F
# Procedure, shortened: as §1
# [2] = molecular target: rat IL-21R expressed on cells (rat); experiment: cell-based or functional assay
# [3] = molecular target: T5, rabbit IL-21R-Fc isoform 1 (rabbit); experiment: ELISA; competitor 10% conditioned medium containing rabbit IL-21
# T5 construct: extracellular domain
# [4] = molecular target: T6, rabbit IL-21R-Fc isoform 2 (rabbit); experiment: as above
# T6 construct: extracellular domain
# [5] = molecular target: human IL-21R expressed on cells (human, UniProt Q9HBE5 20-538); experiment: cell-based or functional assay
# human IL-21R expressed on cells, sequence (Q9HBE5 20-538 limits assumed): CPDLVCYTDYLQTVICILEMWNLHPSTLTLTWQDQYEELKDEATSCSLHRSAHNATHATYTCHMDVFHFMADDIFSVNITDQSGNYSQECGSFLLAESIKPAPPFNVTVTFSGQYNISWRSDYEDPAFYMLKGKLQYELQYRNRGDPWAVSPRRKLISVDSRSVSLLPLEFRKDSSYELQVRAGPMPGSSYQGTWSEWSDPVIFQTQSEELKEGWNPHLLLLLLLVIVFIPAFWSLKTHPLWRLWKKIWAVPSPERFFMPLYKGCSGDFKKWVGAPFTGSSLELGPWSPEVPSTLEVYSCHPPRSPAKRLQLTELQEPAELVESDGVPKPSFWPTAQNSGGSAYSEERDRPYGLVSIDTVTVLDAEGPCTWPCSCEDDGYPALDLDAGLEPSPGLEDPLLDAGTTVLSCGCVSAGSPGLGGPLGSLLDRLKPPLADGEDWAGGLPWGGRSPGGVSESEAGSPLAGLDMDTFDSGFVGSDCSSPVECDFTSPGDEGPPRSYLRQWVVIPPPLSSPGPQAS
# T1 sequence (Q9HBE5 20-232): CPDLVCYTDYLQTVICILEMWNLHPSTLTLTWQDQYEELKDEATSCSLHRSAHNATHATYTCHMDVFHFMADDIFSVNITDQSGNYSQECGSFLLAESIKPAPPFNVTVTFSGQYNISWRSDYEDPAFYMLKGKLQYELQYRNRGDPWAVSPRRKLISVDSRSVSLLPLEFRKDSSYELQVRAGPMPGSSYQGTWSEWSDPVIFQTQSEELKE
# T4 sequence (P35225 35-146 limits assumed): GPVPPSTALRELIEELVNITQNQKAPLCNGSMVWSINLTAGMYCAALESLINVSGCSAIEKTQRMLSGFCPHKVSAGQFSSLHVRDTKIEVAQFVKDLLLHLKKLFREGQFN
binder,measurement,setting,value
B1,kon,[1],439000 M⁻¹ s⁻¹
B2,binding result,human IL-2Rβ,no binding (tested: 50 nM)
same,binding result,human soluble IL-4R,no binding (tested: 50 nM)
same,binding result,human IL-13-His/FLAG,no binding (tested: 50 nM)
B3,"IC50, rat T cell proliferation, experiment 1",[2],173 nM
same,"IC50, rat T cell proliferation, experiment 2",[2],105 nM
B4,fold reduction of binding in the presence of rabbit IL-21,[3],~10 fold
same,fold reduction of binding in the presence of rabbit IL-21,[4],~10 fold
same,"IC50, IL-21-induced CD19 expression in human whole blood",[5],7 ng/mL
same,"IC50, IL-21-induced GZMB expression in human whole blood",[5],< 3 ng/mL
same,"IC50, IL-21-induced IFNG expression in human whole blood",[5],15 ng/mL
same,"IC50, IL-21-induced IL2Rα expression in human whole blood",[5],2 ng/mL
same,"IC50, IL-21-induced IL6 expression in human whole blood",[5],5 ng/mL
same,"IC50, IL-21-induced PRF1 expression in human whole blood",[5],7 ng/mL
same,"IC50, rat T cell proliferation, experiment 1",[2],36 nM
same,"IC50, rat T cell proliferation, experiment 2",[2],27.1 nM
